In assay [1] the target is LH1-RC complex of Rba. sphaeroides IL106 (wild type) (Rhodobacter sphaeroides f. sp. denitrificans strain IL106) (UniProt Q3J1A4). The experiment in a line: sucrose density gradient centrifugation; supernatant of chromatophores solubilised with 1.0% w/v DDM on a stepwise sucrose gradient (10-40% w/v), 20 mM Tris-HCl pH 8.0, 0.05% w/v DDM, 4 °C, 150,000 x g, 6 h; ratio from volumes and absorption of the dimeric and monomeric layers.

Assay [2] has as its target LH1-RC complex of the protein-U-deleted strain IL106-ΔU (Rhodobacter sphaeroides f. sp. denitrificans strain IL106) (UniProt Q3J1A4). Described as above.

In general, stoichiometry N refers to the number of molecules, sites or subunits per partner or assembly. Regarding “LH1-RC complex of Rba. sphaeroides IL106 (wild type) (from UniProt Q3J1A4 1-58; Q3J1A3 1-49; P0C0Y8 1-282; P0C0Y9 1-308; P0C0Y7 1-260; P13402 1-82)”, in assay [1], the ratio of dimeric to monomeric LH1-RC came out at 0.44 and the stoichiometry N stood at 2.

On to “LH1-RC complex of the protein-U-deleted strain IL106-ΔU (from UniProt Q3J1A4 1-58; Q3J1A3 1-49; P0C0Y8 1-282; P0C0Y9 1-308; P0C0Y7 1-260; P13402 1-82)”, for which, in assay [2], the ratio of dimeric to monomeric LH1-RC worked out at 0.15 and the stoichiometry N amounted to 2.
